Laboratory results reported in the supplement of paper PMC11865577.

Experiments:
Assay in all cases: pull-down binding Z-score (relative to library population); higher = stronger binding
[1] = system: G-clamp-N3 (biotin conjugate); conditions: RNA library: Library-1 (pre-miRNA loops + repeats)
Summary of the method: (§1)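 Heat-folded RNA library (1 μg, Cy5 or Cy3 end label, phosphate/NaCl/KCl buffer) was captured for 60 min at 25 °C on streptavidin beads displaying 100 pmol of biotin-conjugated small molecule, then washed three times. The bound fraction, eluted in hot SDS, was hybridised to a DNA barcode microarray at 55.5 °C for 20 h. Z-scores for binding were taken against the library mean and standard deviation after beads-only subtraction and trimmed averaging of replicate barcoded probes.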

[2] = system: TO-3-N3 (biotin conjugate); conditions: RNA library: Library-2
Summary of the method: as §1

[3] = system: TO-3-N3-2 (biotin conjugate); conditions: RNA library: Library-2
Summary of the method: as §1

TO-N3 (biotin conjugate) = conditions: RNA library: Library-2
Summary of the method: as §1

[4] = system: TO-N3-2 (biotin conjugate); conditions: RNA library: Library-2
Summary of the method: as §1

UGCUAUUACUUGUAUUUAUUUGUAAUGCA [hsa-mir-548ab]
pull-down binding Z-score [1]: -0.547 | pull-down binding Z-score [2]: -0.524 | pull-down binding Z-score [3]: -0.88 | pull-down binding Z-score (TO-N3 (biotin conjugate)): -1.33 | pull-down binding Z-score [4]: -1.59

UGCUAUUAGAAAGUAAUGGCA [hsa-mir-548ba]
pull-down binding Z-score [1]: 0.465 | pull-down binding Z-score [2]: 0.757 | pull-down binding Z-score [3]: 0.507 | pull-down binding Z-score (TO-N3 (biotin conjugate)): 0.776 | pull-down binding Z-score [4]: -0.00903

UGCUCAGUGGAGUUAUUUUGAGCA [hsa-mir-4495]
pull-down binding Z-score [1]: 1.2 | pull-down binding Z-score [2]: -1.01 | pull-down binding Z-score [3]: -0.621 | pull-down binding Z-score (TO-N3 (biotin conjugate)): -1.42 | pull-down binding Z-score [4]: -1.2

UGCUCCUUGAACAGGAGGAGCA [hsa-mir-4708]
pull-down binding Z-score [1]: 1.09 | pull-down binding Z-score [2]: -0.48 | pull-down binding Z-score [3]: -0.405 | pull-down binding Z-score (TO-N3 (biotin conjugate)): -0.683 | pull-down binding Z-score [4]: -0.535

UGCUCUGAUGAAGACCCAUGUGGC [hsa-mir-621]
pull-down binding Z-score [1]: -0.6 | pull-down binding Z-score [2]: -0.162 | pull-down binding Z-score [3]: 0.285 | pull-down binding Z-score (TO-N3 (biotin conjugate)): 0.589 | pull-down binding Z-score [4]: 1.51

UGCUCUGGUGACUGAGGACCGCCAGGCA [hsa-mir-4763]
pull-down binding Z-score [1]: -0.385 | pull-down binding Z-score [2]: -0.245 | pull-down binding Z-score [3]: -0.197 | pull-down binding Z-score (TO-N3 (biotin conjugate)): -0.091 | pull-down binding Z-score [4]: 0.367

UGCUGAUGUCAUCAGUCAUAACUUCUGCG [hsa-mir-6854]
pull-down binding Z-score [1]: -0.983 | pull-down binding Z-score [2]: -0.119 | pull-down binding Z-score [3]: 0.131 | pull-down binding Z-score (TO-N3 (biotin conjugate)): -0.0155 | pull-down binding Z-score [4]: 0.366

UGCUGGAGAAGUGUUU [hsa-mir-557]
pull-down binding Z-score [1]: -0.431 | pull-down binding Z-score [2]: 0.516 | pull-down binding Z-score [3]: 0.0975 | pull-down binding Z-score (TO-N3 (biotin conjugate)): 0.49 | pull-down binding Z-score [4]: 0.156

UGCUGGUGCUAGAGAGGAAAGCA [hsa-mir-4748]
pull-down binding Z-score [1]: 1 | pull-down binding Z-score [2]: 0.426 | pull-down binding Z-score [3]: 0.315 | pull-down binding Z-score (TO-N3 (biotin conjugate)): 0.985 | pull-down binding Z-score [4]: 2.22

UGCUGUGAGCUAGCCAGCAG [hsa-mir-5693]
pull-down binding Z-score [1]: -0.44 | pull-down binding Z-score [2]: -0.0213 | pull-down binding Z-score [3]: 0.0593 | pull-down binding Z-score (TO-N3 (biotin conjugate)): 0.614 | pull-down binding Z-score [4]: 0.91

UGCUGUGCUGUGCUGAGCAGGGCUGAGCUG [hsa-mir-4539]
pull-down binding Z-score [1]: 0.347 | pull-down binding Z-score [2]: 0.29 | pull-down binding Z-score [3]: 0.178 | pull-down binding Z-score (TO-N3 (biotin conjugate)): 1.07 | pull-down binding Z-score [4]: 1.46

UGCUGUUGCUGUGAAAGCUGA [hsa-mir-6823]
pull-down binding Z-score [1]: -0.619 | pull-down binding Z-score [2]: 0.045 | pull-down binding Z-score [3]: 0.304 | pull-down binding Z-score (TO-N3 (biotin conjugate)): 0.559 | pull-down binding Z-score [4]: 0.705

UGCUGUUGGAGACUCGAUUGUUGGUGACAGCGAAAGAACGAUAACAAA [hsa-mir-3655]
pull-down binding Z-score [1]: -1.76 | pull-down binding Z-score [2]: -0.405 | pull-down binding Z-score [3]: -0.149 | pull-down binding Z-score (TO-N3 (biotin conjugate)): 0.231 | pull-down binding Z-score [4]: 1.04

UGCUUCAGUUUCACUCCAAGCA [hsa-mir-4771-2_4771-1]
pull-down binding Z-score [1]: -0.932 | pull-down binding Z-score [2]: -0.0351 | pull-down binding Z-score [3]: -0.126 | pull-down binding Z-score (TO-N3 (biotin conjugate)): -0.204 | pull-down binding Z-score [4]: -0.141

UGCUUCCACAUAGCAGCA [hsa-mir-4752]
pull-down binding Z-score [1]: -0.248 | pull-down binding Z-score [2]: -0.423 | pull-down binding Z-score [3]: -0.24 | pull-down binding Z-score (TO-N3 (biotin conjugate)): -0.62 | pull-down binding Z-score [4]: -0.597

UGCUUGACCUGAAUGCUACAAGGCA [hsa-mir-103b-2]
pull-down binding Z-score [1]: -1.12 | pull-down binding Z-score [2]: -0.324 | pull-down binding Z-score [3]: -0.122 | pull-down binding Z-score (TO-N3 (biotin conjugate)): -0.303 | pull-down binding Z-score [4]: -0.0962

UGCUUGAUCCAUAUGCAACAAGGCA [hsa-mir-103b-1]
pull-down binding Z-score [1]: -0.604 | pull-down binding Z-score [2]: 0.453 | pull-down binding Z-score [3]: 0.244 | pull-down binding Z-score (TO-N3 (biotin conjugate)): 0.57 | pull-down binding Z-score [4]: 0.715

UGCUUUACUUUUAAUGGCA [hsa-mir-548k]
pull-down binding Z-score [1]: -0.352 | pull-down binding Z-score [2]: -0.819 | pull-down binding Z-score [3]: -0.358 | pull-down binding Z-score (TO-N3 (biotin conjugate)): -1.15 | pull-down binding Z-score [4]: -1.34

UGCUUUGUUAGAAACAAAAAGCA [hsa-mir-4679-1]
pull-down binding Z-score [1]: 0.865 | pull-down binding Z-score [2]: 0.632 | pull-down binding Z-score [3]: 0.248 | pull-down binding Z-score (TO-N3 (biotin conjugate)): 0.447 | pull-down binding Z-score [4]: -0.462

UGCUUUUUGUUUCUAACAAAGCA [hsa-mir-4679-2]
pull-down binding Z-score [1]: -0.591 | pull-down binding Z-score [2]: 0.272 | pull-down binding Z-score [3]: -0.407 | pull-down binding Z-score (TO-N3 (biotin conjugate)): 0.0252 | pull-down binding Z-score [4]: -1.25

UGGAAGCUCCAGGUGCCAACCACCUGCCUCUA [hsa-mir-6731]
pull-down binding Z-score [1]: -0.826 | pull-down binding Z-score [2]: 0.00854 | pull-down binding Z-score [3]: -0.134 | pull-down binding Z-score (TO-N3 (biotin conjugate)): 0.231 | pull-down binding Z-score [4]: 0.456

UGGAAGGAAUGGGAUCUACUUCCA [hsa-mir-3612]
pull-down binding Z-score [1]: 0.981 | pull-down binding Z-score [2]: 0.389 | pull-down binding Z-score [3]: 0.46 | pull-down binding Z-score (TO-N3 (biotin conjugate)): 0.285 | pull-down binding Z-score [4]: -0.214

UGGACAGAAAUUUCCUUUUGAGGAAAUCUUUCCC [hsa-mir-4308]
pull-down binding Z-score [1]: -0.543 | pull-down binding Z-score [2]: -0.486 | pull-down binding Z-score [3]: -0.309 | pull-down binding Z-score (TO-N3 (biotin conjugate)): -0.671 | pull-down binding Z-score [4]: -0.367

UGGACCUCAGGGAAGAGGCUG [hsa-mir-4673]
pull-down binding Z-score [1]: 0.343 | pull-down binding Z-score [2]: -0.608 | pull-down binding Z-score [3]: -0.191 | pull-down binding Z-score (TO-N3 (biotin conjugate)): -0.619 | pull-down binding Z-score [4]: -0.855

UGGACUGUGUACCAAUUUCCA [hsa-mir-194-1]
pull-down binding Z-score [1]: 0.055 | pull-down binding Z-score [2]: -0.134 | pull-down binding Z-score [3]: -0.379 | pull-down binding Z-score (TO-N3 (biotin conjugate)): -0.21 | pull-down binding Z-score [4]: -0.471

UGGAGCCAGGGGGCCCAGGUCUACAGCUUCUCCCCGCUCCC [hsa-mir-6752]
pull-down binding Z-score [1]: -0.438 | pull-down binding Z-score [2]: -0.138 | pull-down binding Z-score [3]: -0.105 | pull-down binding Z-score (TO-N3 (biotin conjugate)): 0.328 | pull-down binding Z-score [4]: 1.2

UGGAGCUAGACCACAUGGGUUCA [hsa-mir-5100]
pull-down binding Z-score [1]: -0.932 | pull-down binding Z-score [2]: -0.111 | pull-down binding Z-score [3]: -0.115 | pull-down binding Z-score (TO-N3 (biotin conjugate)): -0.131 | pull-down binding Z-score [4]: 0.244

UGGAGGAGUCUGGUGGCCUGUUCUCUU [hsa-mir-6754]
pull-down binding Z-score [1]: -0.0952 | pull-down binding Z-score [2]: -0.348 | pull-down binding Z-score [3]: -0.0949 | pull-down binding Z-score (TO-N3 (biotin conjugate)): 0.123 | pull-down binding Z-score [4]: 0.707

UGGAGGCUGACCUCUUACUUUCGGUCGGUCUUCUU [hsa-mir-4258]
pull-down binding Z-score [1]: -1.13 | pull-down binding Z-score [2]: -0.176 | pull-down binding Z-score [3]: -0.43 | pull-down binding Z-score (TO-N3 (biotin conjugate)): -0.486 | pull-down binding Z-score [4]: -0.435

UGGAGGCUGCAGUGAGCCGAGAUCGAGCCACUGUACUCCA [hsa-mir-1273e]
pull-down binding Z-score [1]: 0.0244 | pull-down binding Z-score [2]: 0.259 | pull-down binding Z-score [3]: -0.0556 | pull-down binding Z-score (TO-N3 (biotin conjugate)): 1.14 | pull-down binding Z-score [4]: 1.09

UGGAGGGGGUUUGUUUGCUUAUUCCCCUCU [hsa-mir-6737]
pull-down binding Z-score [1]: 0.456 | pull-down binding Z-score [2]: 0.936 | pull-down binding Z-score [3]: 0.705 | pull-down binding Z-score (TO-N3 (biotin conjugate)): 0.918 | pull-down binding Z-score [4]: 0.633

UGGAGGUGAUGGAUGUUUUCCUCCG [hsa-mir-671]
pull-down binding Z-score [1]: -0.238 | pull-down binding Z-score [2]: -0.607 | pull-down binding Z-score [3]: -0.398 | pull-down binding Z-score (TO-N3 (biotin conjugate)): -0.717 | pull-down binding Z-score [4]: -0.359

UGGAGGUGAUGGGGGCAGGGGAUGGGUCUCACCCUCCC [hsa-mir-5088]
pull-down binding Z-score [1]: 0.537 | pull-down binding Z-score [2]: 3.33 | pull-down binding Z-score [3]: 2.93 | pull-down binding Z-score (TO-N3 (biotin conjugate)): 3.11 | pull-down binding Z-score [4]: 2.59

UGGAGUCAGUAUUGGUCUGGCCA [hsa-mir-4255]
pull-down binding Z-score [1]: 0.114 | pull-down binding Z-score [2]: -0.417 | pull-down binding Z-score [3]: 0.104 | pull-down binding Z-score (TO-N3 (biotin conjugate)): -0.319 | pull-down binding Z-score [4]: 0.502

UGGAGUUUUUUUUUCCUCCUG [hsa-mir-4329]
pull-down binding Z-score [1]: -0.689 | pull-down binding Z-score [2]: 0.315 | pull-down binding Z-score [3]: 0.465 | pull-down binding Z-score (TO-N3 (biotin conjugate)): 0.219 | pull-down binding Z-score [4]: 0.0619

UGGAUCACGCCGACAACACUGGUCU [hsa-mir-4635]
pull-down binding Z-score [1]: -0.474 | pull-down binding Z-score [2]: 0.534 | pull-down binding Z-score [3]: 0.163 | pull-down binding Z-score (TO-N3 (biotin conjugate)): 0.823 | pull-down binding Z-score [4]: 0.76

UGGAUUUGAAAUGGUCCCACUCCUGACGAUCCU [hsa-mir-6748]
pull-down binding Z-score [1]: -0.524 | pull-down binding Z-score [2]: -0.358 | pull-down binding Z-score [3]: -0.155 | pull-down binding Z-score (TO-N3 (biotin conjugate)): -0.0778 | pull-down binding Z-score [4]: 0.335
